In article doi:10.1101/2023.10.18.562911:

Tests used:
[1] = target: full-length GST-Rfa1 (S. cerevisiae) (UniProt P22336); assay: MST
[2] = target: full-length GST-yKu70 (S. cerevisiae) (UniProt P32807); assay: MST
UniProt P32807, sequence (P32807 whole entry): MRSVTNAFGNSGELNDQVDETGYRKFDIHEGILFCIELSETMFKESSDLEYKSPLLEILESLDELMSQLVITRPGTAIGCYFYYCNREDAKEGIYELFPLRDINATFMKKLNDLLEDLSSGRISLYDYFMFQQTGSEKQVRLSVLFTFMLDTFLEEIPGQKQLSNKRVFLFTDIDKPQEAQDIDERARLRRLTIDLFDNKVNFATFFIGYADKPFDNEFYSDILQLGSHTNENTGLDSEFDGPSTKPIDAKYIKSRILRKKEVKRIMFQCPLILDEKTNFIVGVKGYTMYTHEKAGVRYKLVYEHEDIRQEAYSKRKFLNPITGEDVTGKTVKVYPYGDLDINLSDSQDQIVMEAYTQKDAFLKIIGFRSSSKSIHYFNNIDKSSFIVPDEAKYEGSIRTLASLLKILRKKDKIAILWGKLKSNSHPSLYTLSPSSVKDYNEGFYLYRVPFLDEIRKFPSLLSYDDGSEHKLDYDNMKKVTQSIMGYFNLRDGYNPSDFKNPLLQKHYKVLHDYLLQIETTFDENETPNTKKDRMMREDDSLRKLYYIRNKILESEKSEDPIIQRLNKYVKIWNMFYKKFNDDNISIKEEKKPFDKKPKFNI

UniProt P22336, sequence (P22336 whole entry): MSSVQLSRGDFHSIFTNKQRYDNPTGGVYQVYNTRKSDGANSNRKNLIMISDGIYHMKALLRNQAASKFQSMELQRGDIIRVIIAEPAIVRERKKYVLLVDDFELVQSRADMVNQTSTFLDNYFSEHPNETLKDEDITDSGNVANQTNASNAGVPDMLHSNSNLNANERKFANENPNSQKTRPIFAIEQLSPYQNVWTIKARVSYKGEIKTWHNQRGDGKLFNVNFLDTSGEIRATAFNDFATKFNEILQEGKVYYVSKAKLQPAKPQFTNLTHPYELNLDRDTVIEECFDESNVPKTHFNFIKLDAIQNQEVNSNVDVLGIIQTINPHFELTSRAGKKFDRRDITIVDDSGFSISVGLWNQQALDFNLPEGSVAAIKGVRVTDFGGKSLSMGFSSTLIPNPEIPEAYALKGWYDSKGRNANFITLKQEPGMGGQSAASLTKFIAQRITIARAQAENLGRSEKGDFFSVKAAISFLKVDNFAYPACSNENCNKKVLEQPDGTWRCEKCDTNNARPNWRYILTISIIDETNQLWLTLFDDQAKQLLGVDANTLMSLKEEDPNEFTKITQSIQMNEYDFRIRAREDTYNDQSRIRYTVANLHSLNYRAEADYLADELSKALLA

Kd [1] [nM] | Kd [2] [nM] | Substance
1000 | 1200 | native chicken erythrocyte nucleosomes (complex)
1000 | – | yeast Y149F^me3 nucleosomes (from UniProt P61830 1-136) (complex)
– | 1200 | yeast Y236F^me2 nucleosomes (from UniProt P61830 1-136) (complex)
